Results reported in the supplement of paper PMC10724198.
± gives the standard deviation of the averaged measurements.

Test system: Saccharomyces cerevisiae
Assay: protein stability index of tFT-peptide fusion (C-terminal peptide) (PSI (0-1 scale)); higher = more stable (slower turnover)
Details: genetic background: wild type; temperature: 30 C
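Note: PSI is a weighted mean of sequencing reads over stability bins, variants kept only with over 10 reads, mCherry proximal and sfGFP distal, peptide attached via GGGS linker.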

Sequence	protein stability index
VFSLQCVSGIFV	0.568 ± 0.076
VFTFGAGFGARL	0.801 ± 0.022
VFVPARGAFHGL	0.69 ± 0.018
VGACGEYGGFFR	0.67 ± 0.035
VGACWGCGVCPL	0.755 ± 0.049
VGCGGGEFSLFG	0.727 ± 0.034
VGCGGRGGRRGW	0.599 ± 0.019
VGCGVGGIGVLV	0.712 ± 0.1
VGCLNCWLPFLG	0.666 ± 0.048
VGCRGTIAIGGR	0.683 ± 0.0071
VGEGGGEVMGEA	0.712 ± 0.085
VGFGARGVPGGG	0.681 ± 0.019
VGFGVRTGETVV	0.685 ± 0.048
VGFSAFSDSFFV	0.7224 ± 0.0046
VGFVAWFRNVCR	0.653 ± 0.044
VGFYRADSLLIF	0.5763 ± 0.0049
VGGAAVGAGGGV	0.691 ± 0.054
VGGAWRMGRGGG	0.658 ± 0.018
VGGEGSAGLQCR	0.6956 ± 0.0037
VGGFCSWVVAWF	0.717 ± 0.1
VGGFRVLCVGLG	0.613 ± 0.04
VGGGGEWCLVRL	0.685 ± 0.013
VGGGGRARRRGS	0.701 ± 0.013
VGGVGGLWGGAV	0.69 ± 0.064
VGGVRGAGCVRG	0.705 ± 0.024
VGGVWGLGVRPR	0.693 ± 0.029

Sequence	protein stability index
VGGWGGVSLGGR	0.721 ± 0.1
VGIFQLCCALGG	0.47 ± 0.085
VGILTSVQKHSG	0.723 ± 0.16
VGLGGGVRLGRL	0.786 ± 0.09
VGLGRPAAAWRR	0.71 ± 0.00097
VGLLCVGAGFWG	0.652 ± 0.014
VGLLGCGMNGGR	0.701 ± 0.068
VGLLLAGKIVTY	0.604 ± 0.033
VGLVVVRTMGPC	0.6463 ± 0.00079
VGNGGVWSVGRG	0.685 ± 0.038
VGRAPDFLYGVW	0.691 ± 0.044
VGREVSYGRGGD	0.655 ± 0.031
VGRGCVLGVWEG	0.715 ± 0.035
VGRGPSAPVSCV	0.726 ± 0.061
VGRTNHSRVFRT	0.627 ± 0.035
VGRWGGVSLGGR	0.715 ± 0.09
VGSLGVGTFRRD	0.692 ± 0.011
VGSLRAGYFLRL	0.637 ± 0.043
VGSSLRGWSSRT	0.804 ± 0.045
VGVAGGRGEEEL	0.735 ± 0.019
VGVDCGVLWCLF	0.637 ± 0.015
VGVFDGAVFSWC	0.726 ± 0.12
VGVGGGRWCGRG	0.69 ± 0.059
VGVGGVGGFFGC	0.79 ± 0.037
VGVTLSSFSRLP	0.693 ± 0.085
VGVVRAGWGGAV	0.65 ± 0.059

Sequence	protein stability index
VGVVVGLVRLLG	0.537 ± 0.039
VGVWTGWDVDCH	0.742 ± 0.076
VGWGGGESLGWV	0.694 ± 0.13
VGYWGMGFWFSG	0.65 ± 0.03
VHCNLKLDASNF	0.719 ± 0.058
VHESARAAGSDW	0.647 ± 0.062
VHGAQICCIPWY	0.699 ± 0.063
VHGYVRLIWPTI	0.696 ± 0.053
VHHFCSPPLPPP	0.732 ± 0.0095
VHHTPFFSAPHV	0.647 ± 0.09
VHSPLVHILSCS	0.582 ± 0.012
VHTCVSYTNCMD	0.703 ± 0.026
VICRGGHVLLES	0.72 ± 0.098
VIDHALWCYVGG	0.605 ± 0.0087
VIFGCVLSQLDT	0.705 ± 0.023
VIILRWCRVDGF	0.565 ± 0.031
VIVLVQDVALQL	0.7 ± 0.065
VKGCKCGRIASY	0.669 ± 0.063
VKPIFTEYGRYK	0.626 ± 0.002
VKQGCISSNCKL	0.762 ± 0.16
VKRPGVGRSSTA	0.731 ± 0.051
VKTNPEGDGKQE	0.671 ± 0.021
VKVWRTILRLLD	0.535 ± 0.0097
VLACVAQAACCR	0.556 ± 0.054
VLAGTGGCASVW	0.739 ± 0.022
VLAGVVGQARWW	0.731 ± 0.015

Sequence	protein stability index
VLALLPLFFYFH	0.5041 ± 0.0041
VLFCFAHSASFL	0.536 ± 0.066
VLGCWEAPFVRC	0.62 ± 0.1
VLGGVWAWWVGF	0.663 ± 0.022
VLGLLFLLCVFM	0.6436 ± 0.0038
VLGVTVRFRGIS	0.642 ± 0.057
VLLRSTRRPLPC	0.657 ± 0.036
VLMVIPRAQVLL	0.697 ± 0.085
VLPPTPLTPVLP	0.676 ± 0.055
VLRARQGVREPP	0.526 ± 0.01
VLRGSFPWLSPV	0.7084 ± 0.0048
VLSGFICTILIP	0.596 ± 0.038
VLSLLVLLLSLP	0.614 ± 0.017
VLSSARKEVIIG	0.643 ± 0.03
VLTGFTGSAIIG	0.682 ± 0.03
VLTVVRVGVGKQ	0.676 ± 0.051
VLVLVARPLWRI	0.646 ± 0.0094
VLVRRVFRRRSR	0.786 ± 0.11
VLVRYSAGTGGT	0.605 ± 0.013
VMKILQVGDVYN	0.752 ± 0.021
VMLSYCHNLTKI	0.646 ± 0.074
VMLWAGLFGSSV	0.634 ± 0.018
VMTRVIYRGVGR	0.6643 ± 0.00051
VNKRRCIGERDG	0.6949 ± 0.0029
VNMMYEIWPLGN	0.624 ± 0.038
VNRYSKETDAVF	0.6719 ± 0.0043

Sequence	protein stability index
VNYRVWRKRGGR	0.644 ± 0.057
VPEMFSSGIKGG	0.653 ± 0.072
VPLPLHLPPPLP	0.863 ± 0.12
VPMVFSIYFGVS	0.563 ± 0.012
VPPPLASPPVTP	0.698 ± 0.055
VPPPVCAVPPPL	0.684 ± 0.036
VPPSKQRSRIKD	0.675 ± 0.028
VPRGPRFHIILS	0.594 ± 0.035
VPRLPPSPPPLP	0.779 ± 0.076
VPSCWVSFPPSP	0.732 ± 0.04
VPSPPCPPHLPI	0.655 ± 0.012
VPVALWEAPAVH	0.601 ± 0.013
VPVIGRSCPFLP	0.6581 ± 0.0013
VPYFRSMSSLSI	0.6347 ± 0.0039
VQKITRLVDKVV	0.813 ± 0.065
VQNPVTTPQEQF	0.684 ± 0.043
VQTYVRARVDRL	0.711 ± 0.024
VRAGFRAWGVSE	0.572 ± 0.2
VRAHARPTKGKP	0.682 ± 0.059
VRATNLSSVGIF	0.619 ± 0.011
VREFRRAVFVGS	0.544 ± 0.02
VREGTKDGGSRV	0.544 ± 0.042
VRESLGANACSR	0.69 ± 0.058
VRFARSGPAHVC	0.6607 ± 0.003
VRFKDFDDLGSL	0.704 ± 0.067
VRGRGRSWRRVK	0.758 ± 0.18

Sequence	protein stability index
VRGRLGGGVGRA	0.686 ± 0.079
VRGVGGLWGGAV	0.785 ± 0.17
VRHGERGGGLGD	0.782 ± 0.06
VRHSCRTTTPPS	0.708 ± 0.009
VRNKGVAKDHCP	0.661 ± 0.064
VRNPLRSFSGDA	0.64 ± 0.049
VRNVVYWEFVVE	0.585 ± 0.063
VRPPPPPRSSPL	0.742 ± 0.055
VRPQLGNHRILV	0.609 ± 0.0067
VRQGERGGGLGD	0.747 ± 0.038
VRRARATLYSWL	0.693 ± 0.052
VRRETGPPRAPT	0.6717 ± 0.0019
VRRVVDESKTRD	0.659 ± 0.038
VRSGKGKNRWNK	0.719 ± 0.024
VRSLFSFRLRGS	0.633 ± 0.056
VRVCGPSCFRPG	0.628 ± 0.05
VRWLLTSHARLT	0.484 ± 0.12
VRWSRMGCNWGG	0.585 ± 0.093
VSAPTHVSRVTQ	0.649 ± 0.0088
VSARWSTSLCLS	0.533 ± 0.015
VSDGGCIFHRRT	0.704 ± 0.055
VSEGFVLGGSCG	0.663 ± 0.0074
VSGPTPAPLSSL	0.695 ± 0.028
VSGSSAIFLLWC	0.706 ± 0.1
VSHKETNKIKPN	0.701 ± 0.097
VSIAYARHGDSV	0.693 ± 0.028

Sequence	protein stability index
VSKYNGIKRRNG	0.6 ± 0.0085
VSLCYGGGFWGG	0.722 ± 0.014
VSLVLESFFGRV	0.719 ± 0.014
VSPFSILLPVPL	0.608 ± 0.017
VSPLFQDFSIIN	0.717 ± 0.06
VSPTGRRGYGRS	0.66754 ± 0.00015
VSRGESEVKAGG	0.673 ± 0.1
VSRGRVKETGEE	0.713 ± 0.038
VSRKEQYPEAQE	0.625 ± 0.033
VSSFALDVGFHF	0.638 ± 0.068
VSSFGHTFCGWI	0.618 ± 0.018
VSSPLLFCSIFL	0.675 ± 0.026
VSSTLVARTVWC	0.69 ± 0.035
VTGGGVGHWGWW	0.761 ± 0.052
VTGSGVGGSPEC	0.683 ± 0.042
VTLFFLFSLSPP	0.56 ± 0.013
VTLWGFFRVLSL	0.686 ± 0.043
VVARFDTILLWS	0.608 ± 0.06
VVARGGGGGSGA	0.583 ± 0.016
VVAVRLPNVRHY	0.655 ± 0.018
VVAVTTIDSTHL	0.682 ± 0.033
VVFASNGSYVLG	0.672 ± 0.041
VVFTSISFGLFV	0.572 ± 0.044
VVGAHLWSGFSA	0.711 ± 0.013
VVGGAGRRYVEG	0.702 ± 0.036
VVGKKQTGEKEK	0.725 ± 0.048

Sequence	protein stability index
VVGRWRVCNVGL	0.626 ± 0.05
VVGVLRVRSGEN	0.606 ± 0.03
VVGYAIRVRSGL	0.593 ± 0.018
VVLWSTGRVLYG	0.699 ± 0.025
VVPDVGVVTSPA	0.649 ± 0.072
VVRCVLSQKCLV	0.578 ± 0.015
VVSRTCVRWGLV	0.655 ± 0.039
VVSVQHEVIIFL	0.611 ± 0.05
VVSWLGAGYSVR	0.7 ± 0.071
VVWLWGAGWGCD	0.747 ± 0.022
VVYFGVVVEGQV	0.514 ± 0.032
VWAGGSLLGCVG	0.686 ± 0.044
VWAVALSRQGPC	0.689 ± 0.016
VWFFSHFCGVRF	0.686 ± 0.012
VWGAGGGVWGLG	0.793 ± 0.0085
VWGRRVMESHGE	0.628 ± 0.042
VWLGTCLPRRAV	0.725 ± 0.13
VWRCWGGKGQDS	0.729 ± 0.037
VWRRCVPGPASP	0.67 ± 0.0097
VWSSCAGDVLFD	0.734 ± 0.039
